Paper PMC8683613
pKd: −log10 of the molar value.

Tests used:
[1] = target: oxygen-cleaved pyruvate formate-lyase mimic (cPFL, residues 1-733) (E. coli)
[2] = target: truncated pyruvate formate-lyase (tPFL, residues 1-695) (E. coli)
[3] = target: oxygen-cleaved pyruvate formate-lyase mimic (cPFL, residues 1-733) (E. coli); test: ITC; YfiD variant in the syringe titrated into the PFL variant in the cell, matched buffer; MicroCal iTC200, 25 °C, 20 injections of 2.0 μl
[4] = target: oxygen-cleaved pyruvate formate-lyase mimic (cPFL, residues 1-733) (E. coli); remark: listed apart in the source

oxygen-cleaved pyruvate formate-lyase mimic (cPFL, residues 1-733) (E. coli), sequence (P09373 2-734 limits assumed): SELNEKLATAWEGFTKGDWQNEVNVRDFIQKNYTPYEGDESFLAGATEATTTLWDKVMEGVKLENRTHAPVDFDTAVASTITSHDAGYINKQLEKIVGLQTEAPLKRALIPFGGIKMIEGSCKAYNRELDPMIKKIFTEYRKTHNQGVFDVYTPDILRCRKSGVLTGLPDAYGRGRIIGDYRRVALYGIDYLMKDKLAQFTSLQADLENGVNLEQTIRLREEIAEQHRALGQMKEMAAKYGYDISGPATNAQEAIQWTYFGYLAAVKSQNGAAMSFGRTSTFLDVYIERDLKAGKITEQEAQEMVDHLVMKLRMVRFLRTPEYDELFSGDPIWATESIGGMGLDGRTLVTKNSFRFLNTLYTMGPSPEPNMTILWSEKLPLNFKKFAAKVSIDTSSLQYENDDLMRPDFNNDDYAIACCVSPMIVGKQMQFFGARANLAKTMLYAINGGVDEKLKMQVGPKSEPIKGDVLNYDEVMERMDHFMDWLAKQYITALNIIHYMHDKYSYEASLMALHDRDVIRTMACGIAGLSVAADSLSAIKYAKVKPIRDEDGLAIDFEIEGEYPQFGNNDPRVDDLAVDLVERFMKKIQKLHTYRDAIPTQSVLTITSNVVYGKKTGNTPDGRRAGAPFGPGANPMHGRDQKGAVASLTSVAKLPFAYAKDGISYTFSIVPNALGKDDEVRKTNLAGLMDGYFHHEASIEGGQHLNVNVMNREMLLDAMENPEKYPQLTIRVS
truncated pyruvate formate-lyase (tPFL, residues 1-695) (E. coli), sequence (P09373 1-695): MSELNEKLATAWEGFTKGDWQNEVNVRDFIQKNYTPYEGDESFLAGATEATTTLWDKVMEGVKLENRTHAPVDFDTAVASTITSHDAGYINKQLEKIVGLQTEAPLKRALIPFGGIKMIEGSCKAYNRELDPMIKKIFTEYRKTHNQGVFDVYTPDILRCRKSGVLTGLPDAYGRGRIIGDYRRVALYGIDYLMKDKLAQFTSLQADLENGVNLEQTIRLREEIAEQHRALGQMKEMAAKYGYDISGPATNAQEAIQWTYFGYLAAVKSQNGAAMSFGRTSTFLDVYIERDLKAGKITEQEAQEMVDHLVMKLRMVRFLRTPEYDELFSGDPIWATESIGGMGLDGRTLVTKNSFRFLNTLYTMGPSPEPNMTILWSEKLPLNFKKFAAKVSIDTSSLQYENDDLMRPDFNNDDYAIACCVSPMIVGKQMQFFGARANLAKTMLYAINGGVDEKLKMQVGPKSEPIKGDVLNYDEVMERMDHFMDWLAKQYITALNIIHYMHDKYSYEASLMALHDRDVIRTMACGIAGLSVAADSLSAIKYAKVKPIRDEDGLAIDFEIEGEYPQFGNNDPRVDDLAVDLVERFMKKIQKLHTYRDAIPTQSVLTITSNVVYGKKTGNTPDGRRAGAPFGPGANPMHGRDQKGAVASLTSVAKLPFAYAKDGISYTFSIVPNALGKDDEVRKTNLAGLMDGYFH

pKd [3] | apparent kcat of acetyl-CoA production by the activated cPFL:truncYfiD complex (coupled assay, 21 °C, per glycyl radical) [4] [s⁻¹] | Substance | glycyl radical installed by PFL-AE on the 1:1 cPFL:YfiD mixture (200 μM each), quantified by EPR; no detectable radical for the individual components [1] [µM] | glycyl radical installed by PFL-AE on the 1:1 tPFL:YfiD mixture (200 μM each), quantified by EPR [2] [µM] | glycyl radical installed by PFL-AE on the 1:1 cPFL:truncYfiD mixture (200 μM each), quantified by EPR [1] [µM] | glycyl radical installed by PFL-AE on the 1:1 tPFL:truncYfiD mixture (200 μM each), quantified by EPR [2] [µM]
4.85 |  | YfiD (spare part protein, autonomous glycyl radical cofactor) (from UniProt P68066 1-127) (natural protein) | 15.9 | 0.5 |  | 
 | 186 | truncated YfiD (truncYfiD, residues 61-127) (from UniProt P68066 61-127) (domain or fragment) |  |  | 4.1 | 2.7
